{
  "source": "the supplement of paper PMC9112550",
  "about": "“Optimization of the antimicrobial peptide Bac7 by deep mutational scanning” (BMC Biology, 2022);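 also: peptides expressed intracellularly from a pBAD plasmid library in pooled LB shake-flask culture, induced with 0.3% L-arabinose, DNA abundance read by NGS, three biological replicates, DESeq2 with apeglm shrinkage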",
  "data": [
    {"tested_on": "Escherichia coli TOP10", "experiment": "shrunken log2 fold change of peptide-encoding DNA abundance (4.5 h post-induction vs induction); higher = less antimicrobial activity (less host growth inhibition)", "settings": "time post-induction: 4.5 h; library: site-saturation at positions 5, 18, 19, 20", "values": [
      {"sequence": "RRIRARPPRLPRPRPRPKMPPRP", "shrunken log2 fold change": 0.114},
      {"sequence": "RRIRMRPPRLPRPRPRPPLWPRP", "shrunken log2 fold change": 1.31},
      {"sequence": "RRIRDRPPRLPRPRPRPHEDPRP", "shrunken log2 fold change": 0.0325},
      {"sequence": "RRIRMRPPRLPRPRPRPFMEPRP", "shrunken log2 fold change": -0.096},
      {"sequence": "RRIRLRPPRLPRPRPRPHIAPRP", "shrunken log2 fold change": -0.205},
      {"sequence": "RRIRSRPPRLPRPRPRPRTPPRP", "shrunken log2 fold change": 0.502},
      {"sequence": "RRIRTRPPRLPRPRPRPSEYPRP", "shrunken log2 fold change": -0.0517},
      {"sequence": "RRIRTRPPRLPRPRPRPCEDPRP", "shrunken log2 fold change": -0.0385},
      {"sequence": "RRIRSRPPRLPRPRPRPQRKPRP", "shrunken log2 fold change": 0.264},
      {"sequence": "RRIRPRPPRLPRPRPRPYERPRP", "shrunken log2 fold change": 0.0304},
      {"sequence": "RRIRIRPPRLPRPRPRPKGEPRP", "shrunken log2 fold change": 0.00835},
      {"sequence": "RRIRCRPPRLPRPRPRPMVYPRP", "shrunken log2 fold change": -0.187},
      {"sequence": "RRIRFRPPRLPRPRPRPINQPRP", "shrunken log2 fold change": -0.694},
      {"sequence": "RRIRRRPPRLPRPRPRPKFFPRP", "shrunken log2 fold change": -0.00723},
      {"sequence": "RRIRRRPPRLPRPRPRPAIYPRP", "shrunken log2 fold change": -0.148},
      {"sequence": "RRIRERPPRLPRPRPRPRQWPRP", "shrunken log2 fold change": -0.0536},
      {"sequence": "RRIRFRPPRLPRPRPRPTPMPRP", "shrunken log2 fold change": 0.178},
      {"sequence": "RRIRWRPPRLPRPRPRPQMPPRP", "shrunken log2 fold change": 0.135},
      {"sequence": "RRIRTRPPRLPRPRPRPKREPRP", "shrunken log2 fold change": 0.319},
      {"sequence": "RRIRSRPPRLPRPRPRPLQGPRP", "shrunken log2 fold change": -0.0686},
      {"sequence": "RRIRDRPPRLPRPRPRPLKAPRP", "shrunken log2 fold change": -0.214},
      {"sequence": "RRIRMRPPRLPRPRPRPWLVPRP", "shrunken log2 fold change": 0.0862},
      {"sequence": "RRIRKRPPRLPRPRPRPGFWPRP", "shrunken log2 fold change": 0.537},
      {"sequence": "RRIRDRPPRLPRPRPRPVLNPRP", "shrunken log2 fold change": -0.165},
      {"sequence": "RRIRARPPRLPRPRPRPDNRPRP", "shrunken log2 fold change": 0.0425},
      {"sequence": "RRIRSRPPRLPRPRPRPHVRPRP", "shrunken log2 fold change": 0.128},
      {"sequence": "RRIRLRPPRLPRPRPRPHCNPRP", "shrunken log2 fold change": -0.363},
      {"sequence": "RRIRARPPRLPRPRPRPCGWPRP", "shrunken log2 fold change": 0.365},
      {"sequence": "RRIRVRPPRLPRPRPRPPKDPRP", "shrunken log2 fold change": 0.219},
      {"sequence": "RRIRKRPPRLPRPRPRPFGEPRP", "shrunken log2 fold change": 0.365},
      {"sequence": "RRIRVRPPRLPRPRPRPRLDPRP", "shrunken log2 fold change": 0.238},
      {"sequence": "RRIRFRPPRLPRPRPRPGLRPRP", "shrunken log2 fold change": 0.23},
      {"sequence": "RRIRNRPPRLPRPRPRPTTFPRP", "shrunken log2 fold change": -0.337},
      {"sequence": "RRIRARPPRLPRPRPRPIYHPRP", "shrunken log2 fold change": -0.359},
      {"sequence": "RRIRKRPPRLPRPRPRPGCRPRP", "shrunken log2 fold change": 0.654},
      {"sequence": "RRIRERPPRLPRPRPRPPCNPRP", "shrunken log2 fold change": -0.392},
      {"sequence": "RRIRMRPPRLPRPRPRPFAMPRP", "shrunken log2 fold change": 0.171},
      {"sequence": "RRIRMRPPRLPRPRPRPGDFPRP", "shrunken log2 fold change": 0.215},
      {"sequence": "RRIRYRPPRLPRPRPRPKYRPRP", "shrunken log2 fold change": -0.0133},
      {"sequence": "RRIRRRPPRLPRPRPRPKEQPRP", "shrunken log2 fold change": 0.118},
      {"sequence": "RRIRPRPPRLPRPRPRPRAWPRP", "shrunken log2 fold change": 0.0147},
      {"sequence": "RRIRTRPPRLPRPRPRPIQDPRP", "shrunken log2 fold change": -0.867},
      {"sequence": "RRIRERPPRLPRPRPRPNTGPRP", "shrunken log2 fold change": -0.385},
      {"sequence": "RRIRPRPPRLPRPRPRPDPSPRP", "shrunken log2 fold change": 0.265},
      {"sequence": "RRIRGRPPRLPRPRPRPYEKPRP", "shrunken log2 fold change": -0.0149},
      {"sequence": "RRIRNRPPRLPRPRPRPGKEPRP", "shrunken log2 fold change": -0.311},
      {"sequence": "RRIRCRPPRLPRPRPRPINGPRP", "shrunken log2 fold change": -0.282},
      {"sequence": "RRIRCRPPRLPRPRPRPCKGPRP", "shrunken log2 fold change": 0.035},
      {"sequence": "RRIRVRPPRLPRPRPRPEHQPRP", "shrunken log2 fold change": -0.477},
      {"sequence": "RRIRKRPPRLPRPRPRPKTAPRP", "shrunken log2 fold change": 0.2},
      {"sequence": "RRIRHRPPRLPRPRPRPRARPRP", "shrunken log2 fold change": 0.814},
      {"sequence": "RRIRDRPPRLPRPRPRPVVIPRP", "shrunken log2 fold change": 2.82},
      {"sequence": "RRIRKRPPRLPRPRPRPAPPPRP", "shrunken log2 fold change": 1.04},
      {"sequence": "RRIRPRPPRLPRPRPRPARQPRP", "shrunken log2 fold change": 0.253},
      {"sequence": "RRIRTRPPRLPRPRPRPDHKPRP", "shrunken log2 fold change": -0.117},
      {"sequence": "RRIRNRPPRLPRPRPRPFAKPRP", "shrunken log2 fold change": 0.637},
      {"sequence": "RRIRCRPPRLPRPRPRPYTHPRP", "shrunken log2 fold change": -1.19},
      {"sequence": "RRIRKRPPRLPRPRPRPQKMPRP", "shrunken log2 fold change": 0.0795},
      {"sequence": "RRIRRRPPRLPRPRPRPIPCPRP", "shrunken log2 fold change": 0.0472},
      {"sequence": "RRIRERPPRLPRPRPRPDCTPRP", "shrunken log2 fold change": 0.104},
      {"sequence": "RRIRIRPPRLPRPRPRPCHMPRP", "shrunken log2 fold change": -0.188},
      {"sequence": "RRIRVRPPRLPRPRPRPWVLPRP", "shrunken log2 fold change": 0.054},
      {"sequence": "RRIRCRPPRLPRPRPRPALRPRP", "shrunken log2 fold change": 0.457},
      {"sequence": "RRIRRRPPRLPRPRPRPWHIPRP", "shrunken log2 fold change": -0.246},
      {"sequence": "RRIRRRPPRLPRPRPRPACIPRP", "shrunken log2 fold change": 0.542},
      {"sequence": "RRIRMRPPRLPRPRPRPNLAPRP", "shrunken log2 fold change": 0.337},
      {"sequence": "RRIRARPPRLPRPRPRPCYHPRP", "shrunken log2 fold change": -0.0657},
      {"sequence": "RRIRIRPPRLPRPRPRPNNEPRP", "shrunken log2 fold change": -0.597},
      {"sequence": "RRIRMRPPRLPRPRPRPQPDPRP", "shrunken log2 fold change": 0.658},
      {"sequence": "RRIRDRPPRLPRPRPRPEEPPRP", "shrunken log2 fold change": 2.06},
      {"sequence": "RRIRARPPRLPRPRPRPPYGPRP", "shrunken log2 fold change": 0.0793},
      {"sequence": "RRIRERPPRLPRPRPRPYLHPRP", "shrunken log2 fold change": -0.96},
      {"sequence": "RRIRERPPRLPRPRPRPYPAPRP", "shrunken log2 fold change": -0.544},
      {"sequence": "RRIRERPPRLPRPRPRPCMSPRP", "shrunken log2 fold change": -0.00711},
      {"sequence": "RRIRYRPPRLPRPRPRPFWAPRP", "shrunken log2 fold change": -0.306}
    ]}
  ]
}
